Results as given in US20170010270A1 (Chugai, published 2017).

Tests used:
[1] = molecular target: T1, GPC3 peptide, amino acid position 321-350 (SEQ ID NO: 17) (human); assay: ELISA on immobilised peptide, antibody at 2 µg/mL
T1 construct: synthetic 30-residue peptide of GPC3
T1 peptide: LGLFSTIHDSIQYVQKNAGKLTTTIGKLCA
Description: In order to identify more detailed epitopes for the antibodies, the amino acid sequence of GPC3 was divided into peptides of 30 residues containing 10-residue overlaps, and the corresponding peptides were synthesized (SEQ ID NOs: 1 to 29 in Table 2). Each peptide thus synthesized was dissolved at a concentration of 1 mg/mL in dimethyl sulfoxide and then diluted to 1 μg/mL with PBS. The diluted peptide solution was added at 70 μL/well to a 96-well plate and immobilized thereon at room temperature for 1 hour. After removal of unimmobilized peptides, 20% Blocking-one (Nacalai Tesque, Inc.) was added thereto as a blocking buffer solution at 200 μL/well, and the plate was blocked overnight. After removal of the blocking buffer solution, each well was washed with TBS-T three times, and each antibody diluted to 2 μg/mL with a blocking buffer was then added thereto at 70 μL/well. One hour later, the antibody was removed, and each well was washed three times by the addition of TBS-T at 200 μL/well. An HRP-bound anti-mouse antibody was added at 70 μL/well to each well and reacted therewith for 1 hour. […] The reaction was terminated by the addition of 1% SDS at 70 μL/well, and the absorbance at 405 nm was measured using a plate reader.

[2] = molecular target: T2, AW3, C-terminally His-tagged recombinant product of positions 1 to 218 of GPC3 (human, UniProt P51654 25-218); assay: Western blot of CHO cell pellets, reducing
T2 construct: Expressed in CHO cells; cell pellets used in reducing Western blot; Construct is stated from position 1; not shown: C-terminal His tag
T2 sequence (P51654 25-218): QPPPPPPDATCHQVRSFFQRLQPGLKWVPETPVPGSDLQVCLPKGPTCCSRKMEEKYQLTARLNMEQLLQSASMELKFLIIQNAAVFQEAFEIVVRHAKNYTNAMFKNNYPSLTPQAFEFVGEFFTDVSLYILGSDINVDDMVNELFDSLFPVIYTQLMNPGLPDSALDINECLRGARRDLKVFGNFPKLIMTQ

[3] = molecular target: T3, AW2, C-terminally His-tagged recombinant product of positions 1 to 196 of GPC3 (human, UniProt P51654 25-196); assay: Western blot of CHO cell pellets, reducing
T3 construct: Expressed in CHO cells; cell pellets used in reducing Western blot; Construct is stated from position 1; also called AW2 (1-196); not shown: C-terminal His tag
T3 sequence (P51654 25-196): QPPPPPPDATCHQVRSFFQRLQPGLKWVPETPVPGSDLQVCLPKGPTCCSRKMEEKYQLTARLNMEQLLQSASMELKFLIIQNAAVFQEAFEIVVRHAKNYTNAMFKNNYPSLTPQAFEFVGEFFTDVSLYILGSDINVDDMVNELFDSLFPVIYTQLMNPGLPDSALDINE

binding result [1]: binds
binding result [2]: no binding
binding result [3]: no binding
B1: GT30 antibody (antibody, V domains shown)
VH: QVQLQQSGAELARPGASVKLSCRASGYTFTSYGISWMMQRTGQGLEWIGEIYPRSGITYYNEKFKGKATLTADKSSSTAYMQLSSLTSEDSAVYFCARDVSDGYLFPYWGQGTLVTVSA
VL: DIQMTQSPASLSASVGETVTITCRTSENIYSYLAWYQQKQGKSPQLLVYNAKTLPEGVPSRFSGSGSGTQFSLKINSLQPEDFGSYYCQHHYGTPPTFGGGTKLEIKR
